Data from the RNAGym collection of RNA variant scans (doi:10.1073/pnas.2313332121).
Variants at the floor of the assay were thinned out.

B1: TPR 5TU (parent)
chain: GGAUCUUCUCGAUCUAACAAAAAAGACAAAUCUGCCACAAAGCUUGAGAGCAUCUUCGGAUGCAGAGGCGGCAGCCUUCGGUGGCGCGAUAGCGCCAACGUUCUCAACUAUGACACGCAAAACGCGUGCUCCGUUGAAUGGAGUUUAUCAUG

Variants of: B1
Test: polymerase ribozyme fitness, log enrichment relative to wild type (log ratio); higher = more active; in vitro selection for triplet polymerase activity
Outline: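 In triplicate, a single round of in vitro selection was run on each mutant library, PCR-built and transcribed, covering one subunit of a heterodimeric triplet polymerase ribozyme. Frozen incubation at −7 °C followed annealing with a biotinylated primer, partner subunit and triplets, and extended constructs were then gel-excised, streptavidin-captured and taken through RT-PCR. Fitness is the logarithm of genotype enrichment over wild-type enrichment, from inverse-variance-weighted replicate averages of Illumina-sequenced inputs and outputs. […] only genotypes with ≥10 input reads and ≥1 read per output were kept.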

Row | Variant | polymerase ribozyme fitness (log ratio)
1 | G94A U151A | ≤ -4.2
2 | A98G A120G | -0.401
3 | A97U G124U | -1.05
4 | A98U G141U | 1.39
5 | C96U A137U | -3.84
6 | A97U G141C U146G | -2.08
7 | C93U G141U | -0.142
8 | C93U G141C | -1.55
9 | C96U U151G | -4.05
10 | G94U G143U | -3.64
11 | C95A G141C | 0.744
12 | C96A C125U U130C | -0.299
13 | C96G A122G U139G | 0.0535
14 | C95A C96A U104C A142C | -4.07
15 | C95U G100U U104G C114U G141C A150C | ≤ -4.2
16 | G94C G117U | 0.0157
17 | C96A C105G C125A | -2.29
18 | C96A G126A U139G U151C | ≤ -4.2
19 | G94U G141C | -1.45
20 | C96G A142C | -1.82
21 | G94C A97G C116A | -0.587
22 | C95U A98G | -1.9
23 | C95U A98C | -1
24 | C93U U104G | -1.8

Row | Variant | polymerase ribozyme fitness (log ratio)
25 | C99U C125U | 0.0952
26 | C96A G126C | -0.953
27 | C96U C105A C116G | -1.79
28 | G94C A97U G136C | -3.35
29 | C96A C125A | -0.718
30 | C96U U148A | -3.33
31 | C96U U148G | -3.13
32 | A97G A150G | -2.82
33 | A97G A150C | -2.96
34 | C96U | -0.258
35 | C96A | -0.52
36 | C96G | -0.496
37 | C99G G126U | -0.93
38 | C99G G126A | -0.619
39 | A98G U104G C118U | -0.702
40 | C95U C123A C125U | -0.165
41 | C96U G143C | -3.12
42 | C96U G143A | -0.236
43 | C99G U101A | -1.12
44 | C99U A119C C125G U134G | -3.27
45 | C96U A115G G136U A142G | -3.69
46 | C99G A147C | -1.47
47 | C95A C108G | ≤ -4.2
48 | C99G C129A | -3.81

Row | Variant | polymerase ribozyme fitness (log ratio)
49 | A98G G128A | -3.02
50 | G94A U104C C149U | -1.16
51 | C95U U145A | 0.0594
52 | C96U U101G G124C | -0.75
53 | A97U C99G | -1.6
54 | G94A G143U | -3.57
55 | G94A G143A | -1.01
56 | C96G U102G | -3.26
57 | C96U U104G C129G | -2.81
58 | A97G C123U | 0.215
59 | A97G U130G | -2.77
60 | C95U C116A C129G U148G | ≤ -4.2
61 | C95U G141A | 0.432
62 | C99G C114U | -2.38
63 | G94A C96U C99G U144G | ≤ -4.2
64 | C95U U102C | -1.06
65 | C95U U102G | -1.19
66 | C99A U148G | ≤ -4.2
67 | C96U U145A A150U | 0.912
68 | C96G C108U | -2.5
69 | C95A C96A C116U | -0.649
70 | C96A G152U | -2.51
71 | C93U G143C | -3.12
72 | C96A A115U A147C | -3.48

Row | Variant | polymerase ribozyme fitness (log ratio)
73 | A97U G140U | -3.87
74 | G94A A106G C131G | ≤ -4.2
75 | C96U G100U | -3.13
76 | G94A G152C | -3.08
77 | G94U A150U | -0.849
78 | G94U A150G | -2.5
79 | C95U C99G U104G A110G C116A A142U | ≤ -4.2
80 | A97G G152A | -3.19
81 | C96A U151C | -3.24
82 | C96G C131A | -2.35
83 | C93U U135C | -2.76
84 | C93U U135A | -2.01
85 | C96G U144C | -0.123
86 | C99A A115U A120G | -2.43
87 | C96A G128U | -2.45
88 | G94C A97U | -2.45
89 | A97G C131A | -2.32
90 | A97G C131G | -3.21
91 | C96G G143C | -2.86
92 | C93U U101A | -2.19
93 | G94A C116U A122U G136A | -0.164
94 | C96U G143C U146C | -1.75
95 | G94A C114U | -1.93
96 | C95G A97C | -0.47

Row | Variant | polymerase ribozyme fitness (log ratio)
97 | C96G C108A C123G | -3.69
98 | A97G G143A | -1.44
99 | C96A U139C | -3.61
100 | A98G A115G U135G | -3.81
101 | C93U C131A | -2.97
102 | C96G G152U | -2.77
103 | C95U A142U U145G | -2.47
104 | C96U U109C | -3.67
105 | G94A G141A A150U | ≤ -4.2
106 | C96G C105G | -1.92
107 | G94A G133U | -3.19
108 | G94A G133C | -2.71
109 | C99G C149U | -1.74
110 | G94C C105A | -1.22
111 | A97U U139C G140C U145G | -3.85
112 | G94C A97U A150G | -1.52
113 | G94A G117U | -0.469
114 | C96U U101C A142C | -1.82
115 | C95A A120G A138G | -2.96
116 | C96A U101C U109A C118A | -1.54
117 | A98U C129U | 0.463
118 | C93U G94U A107C | ≤ -4.2
119 | A97G G141C | -1.86
120 | C96G A97G | -2.61

Row | Variant | polymerase ribozyme fitness (log ratio)
121 | C96G A97U | -1.83
122 | G94C C116U | -0.0318
123 | C95U U101G C105U C125U A142U | ≤ -4.2
124 | G94C C131U | -1.79
125 | C99G A137C A142G | -3.71
126 | G94A A137C | -3.2
127 | C96U C103U | -1.25
128 | A97G C99G | -0.579
129 | G94A A119U | -2.21
130 | C96U G126A | 0.845
131 | C95A C99A C123G | -1.33
132 | C99G C118U U148A | ≤ -4.2
133 | G94U C114G C116U | ≤ -4.2
134 | A97G C116U G133U | ≤ -4.2
135 | G94A C105U C116U C125G | -0.0334
136 | C96U A115U | -2.64
137 | C96U G141A | 0.0586
138 | C96U G141C | -0.372
139 | G94A U101G | -0.0834
140 | G94U C96U | -0.719
141 | C96G C105U C116G A119U C132U | -1.57
142 | G94C G126A C132A | -2.93
143 | G94C A107G | -3.89
144 | C95U C105G | -0.337

Row | Variant | polymerase ribozyme fitness (log ratio)
145 | G94C C129G | -3.39
146 | C96A A98U | -0.335
147 | C95G C96U | -2.05
148 | C95G C96G | -2.17
149 | G94A C96G | -2.1
150 | G94C U145G | -0.944
151 | C93U G117A A142C | -4.07
152 | C96G A98G G124A | -1.82
153 | C96U A107G G117A | ≤ -4.2
154 | C95U | -0.031
155 | C95A | 0.441
156 | C95U C96G U135G U144G A147C | -4.2
157 | A97U G117U | -1.25
158 | C95A A98G | 0.372
159 | G94U G128U U139A G141A | ≤ -4.2
160 | C96G C105G G143A | -3.02
161 | A97U C116U | -0.695
162 | C96G A97G G143U | -3.14
163 | C96A G124U | -0.674
164 | C96A G124A | -0.328
165 | C96U A110U | -3.6
166 | A98U G136C | -3.87
167 | G94C U104G | -1.24
